Laboratory results taken from article PMC9231606, “Membrane insertion mechanism of the caveola coat protein Cavin1” (Proceedings of the National Academy of Sciences of the …, 2022).

Target: the molecule itself
Experiment: mass photometry; sample 25 to 100 nM in a gasket well on glass coverslips, acquisition for 60 s; mass from contrast comparison with bovine serum albumin calibrants

B1: Cavin1 (1–190) (domain or fragment, UniProt O54724 1-190, looked up)
chain: MEDVTLHIVERPYSGFPDASSEGPEPTQGEARATEEPSGTGSDELIKSDQVNGVLVLSLLDKIIGAVDQIQLTQAQLEERQAEMEGAVQSIQGELSKLGKAHATTSNTVSKLLEKVRKVSVNVKTVRGSLERQAGQIKKLEVNEAELLRRRNFKVMIYQDEVKLPAKLSVSKSLKESEALPEKEGDELGE
notes: Cavin1, residues 1 to 190 (DR1 1–43, HR1 45–155, DR2 156–190); By mass photometry it was detected as trimers and also as monomers; also called N-terminal part (residues 1 to 190); DR1–HR1–DR2; source: E. coli Rosetta pLysS or BL21(DE3)pLysS, purified (TALON Superflow, gel filtration on Sephacryl S-300 HR)
B1 was tested, and the “stoichiometry N” value was 3.
